Article doi:10.1101/686782

Assays:
Test in all cases: cryo-EM structure
[1] = molecular target: V. mimicus FliP (Vibrio mimicus)
[2] = molecular target: V. mimicus FliQ (Vibrio mimicus)
[3] = molecular target: V. mimicus FliPQR complex (FliP5Q4R1) (Vibrio mimicus)

Substance: V. mimicus FliP (natural protein)
- stoichiometry N [1]: 5

Substance: V. mimicus FliQ (natural protein)
- stoichiometry N [2]: 4

Substance: V. mimicus FlhB (natural protein)
- stoichiometry N [3]: 1
